Data on 17 molecules can be found in patent US20200291070A1.

Numbered stars: 1 amine (or outer) side, 2 acyl side, 3 side chain; on linkers, the order of the positions; unused ones are H or OH. Bridge positions count the residues as written; N and C are the ends. Square brackets hold non-standard residues; d marks the D form. Ends that are not written are not given here. Tm = trimesic acid, bicyclized on Tm at the N-terminus; Trimesoyl = O=C(c1cc(C(=O)[*:2])cc(C(=O)[*:3])c1)[*:1]; 2Nal = N[C@@H](Cc1ccc2ccccc2c1)C(=O)O; Dap = NC[C@H](N)C(=O)O; βAla = NCCC(=O)O

The target of assay [1] is Recombinant GST-NEMO (from plasmid pGEX4T3-NEMO(1-196)) (UniProt Q9Y6K9). The assay can be described thus: HTRF competition against biotin-IKKβKK/RR(701-745) on GST-NEMO. A general note: Time-resolved FRET reads energy transfer from a long-lived donor to a nearby acceptor.
Chain of Recombinant GST-NEMO (from plasmid pGEX4T3-NEMO(1-196)) (Q9Y6K9 1-196): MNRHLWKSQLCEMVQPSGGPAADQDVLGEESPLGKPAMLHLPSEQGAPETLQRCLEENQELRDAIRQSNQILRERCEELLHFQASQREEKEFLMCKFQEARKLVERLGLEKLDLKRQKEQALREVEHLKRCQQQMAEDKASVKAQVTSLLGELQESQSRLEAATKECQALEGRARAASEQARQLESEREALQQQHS
Assay [2] shares this target. The assay can be described thus: HTRF competition IC50, peptide 7 against peptide 6.
Assay [3] shares this target. The assay is described as follows: HTRF competition against biotin-IKKβKK/RR(701-745) on GST-NEMO; lower end tied to peptide 2 by the same paragraph.
Assay [4] shares this target. The assay can be described thus: HTRF competition IC50 against peptide 7; lower end tied to peptide 13 by Table 5 (1.7 vs 1.0 µM).
Assay [5] shares this target. The assay can be described thus: HTRF competition IC50 against peptide 7; upper end tied to peptide 12 by Table 5 (3.0 vs 1.0 µM).
Assay [6] has the same target. The assay can be described thus: HTRF competition IC50 against peptide 7.

As to “peptide 19, Tm(GWIYA)Δ(FΦRrRΔ)-BBK (as printed)”, in assay [1], the IC50 (in general, the concentration that inhibits the measured activity by half) is 1200 nM. Same read-out and setting: to Trimesoyl-GWIY[Dap]F[2Nal]R[dR]R[Dap][βAla][βAla]K (linker N-5-11 via Tm) [peptide 6, Tm(GWIY)Δ(FΦRrRΔ)-BBK] belongs 5900 nM.

As to Trimesoyl-AGWIY[Dap]F[2Nal]R[dR]R[Dap][βAla][βAla]K (linker N-6-12 via Tm) [peptide 9, Tm(AGWIY)Δ(FΦRrRΔ)-BBK], in assay [1], the IC50 stood at 2200 nM. The same measure, in the same setting: to Trimesoyl-GWIYA[Dap]A[2Nal]R[dR]R[Dap][βAla][βAla]K (linker N-6-12 via Tm) [peptide 15, Tm(GWIYA)Δ(AΦRrRΔ)-BBK] belongs 1900 nM; to Trimesoyl-GWIY[dA][Dap]F[2Nal]R[dR]R[Dap][βAla][βAla]K (linker N-6-12 via Tm) [peptide 8, Tm(GWIYa)Δ(FΦRrRΔ)-BBK], 2900 nM.

For Trimesoyl-GWIY[Dap]F[2Nal]RRRR[Dap][βAla][βAla]K (linker N-5-12 via Tm) [peptide 3, Tm(GWIY)Δ(FΦRRRRΔ)-BBK], the IC50 in assay [1] turned out to be 1500 nM.

Consider Trimesoyl-GWIAA[Dap]F[2Nal]R[dR]R[Dap][βAla][βAla]K (linker N-6-12 via Tm) [peptide 14, Tm(GWIAA)Δ(FΦRrRΔ)-BBK], for which, in assay [1], the IC50 was 2800 nM. With Trimesoyl-GWIYA[Dap]F[2Nal]R[dR]R[Dap][βAla][βAla]K (linker N-6-12 via Tm) [peptide 7, Tm(GWIYA)Δ(FΦRrRΔ)-BBK], in assay [2], the fold increase in binding affinity (against peptide 6) amounted to 5.9 fold. In addition, the IC50 in assay [1] worked out at 1000 nM.

As to Trimesoyl-[dA]GWIY[Dap]F[2Nal]R[dR]R[Dap][βAla][βAla]K (linker N-6-12 via Tm) [peptide 10, Tm(aGWIY)Δ(FΦRrRΔ)-BBK], the IC50 in assay [1] was 2300 nM. The same measure, in the same setting: to Trimesoyl-GWIYA[Dap]F[2Nal]A[dR]R[Dap][βAla][βAla]K (linker N-6-12 via Tm) [peptide 17, Tm(GWIYA)Δ(FΦArRΔ)-BBK] belongs 1100 nM. Trimesoyl-GWIY[Dap]F[2Nal]RRR[Dap][βAla][βAla]K (linker N-5-11 via Tm) [peptide 2, Tm(GWIY)Δ(FΦRRRΔ)-BBK]: the IC50 in assay [3] is 3.4 to 28 µM; in assay [1] it was 3400 nM. In the case of Trimesoyl-GWAYA[Dap]F[2Nal]R[dR]R[Dap][βAla][βAla]K (linker N-6-12 via Tm) [peptide 13, Tm(GWAYA)Δ(FΦRrRΔ)-BBK], the fold decrease in potency (against peptide 7) in assay [4] was 2 to 3 fold. The IC50 in assay [1] was 1700 nM.

For Trimesoyl-AWIYA[Dap]F[2Nal]R[dR]R[Dap][βAla][βAla]K (linker N-6-12 via Tm) [peptide 11, Tm(AWIYA)Δ(FΦRrRΔ)-BBK], the IC50 in assay [1] came to 1200 nM. With Trimesoyl-GAIYA[Dap]F[2Nal]R[dR]R[Dap][βAla][βAla]K (linker N-6-12 via Tm) [peptide 12, Tm(GAIYA)Δ(FΦRrRΔ)-BBK], in assay [5], the fold decrease in potency (against peptide 7) is 2 to 3 fold. Further, the IC50 in assay [1] was determined as 3000 nM. Regarding Trimesoyl-GWIYA[Dap]F[2Nal]R[dA]R[Dap][βAla][βAla]K (linker N-6-12 via Tm) [peptide 18, Tm(GWIYA)Δ(FΦRaRΔ)-BBK], the IC50 in assay [1] was 2100 nM.

For Trimesoyl-GAAAA[Dap]F[2Nal]R[dR]R[Dap][βAla][βAla]K (linker N-6-12 via Tm) [peptide 21, Tm(GAAAA)Δ(FΦRrRΔ)-BBK], the fold lower NEMO-binding affinity (against peptide 7) in assay [6] is greater than 100 fold. Regarding Trimesoyl-GAIAA[Dap]F[2Nal]R[dR]R[Dap][βAla][βAla]K (linker N-6-12 via Tm) [peptide 20, Tm(GAIAA)Δ(FΦRrRΔ)-BBK], the fold lower NEMO-binding affinity (against peptide 7) in assay [6] was determined as 16 fold. Besides, the IC50 in assay [1] amounted to 16000 nM.
